“Also recorded” adds a separate entry of the source.
Legend:
Balb/c-nude mice = assay: PET-MRI tissue distribution of Zr89-labelled proteins; assay type: in vivo; conditions: Zr89 label, SC
From the text: Next, the present inventors performed an experiment in Balb/c-nude mice in order to observe the distribution in each tissue organ following the administration of a substance. Zr^89 was used as a radiotracer for tracking the distribution after administration of each substance. Each substance to be administered was labeled with Zr^89 as a reaction condition and a chelator selected through a preliminary test. The labeled Zr^89-protein was purified using a PD-10 column, and Zr^89 labeling efficiency and purity were confirmed using Radio TLC and SEC-HPLC. The labeling efficiency of the Zr^89-protein of 90% or more and the purity of 80% or more were determined to be appropriate, and the labeled protein was administered subcutaneously at 0.2 mCi/0.2 cc. Each administration substance was administered to three animals and static images for 20 minutes were obtained using PET-MRI at 1 hour, 6 hours, 24 hours, 48 hours, and 168 hours after injection. Through image analysis, the distribution of drugs as a function of time in the liver, small intestine, and large intestine was expressed as SUV (Standardized Uptake Value) and comparatively analyzed.

GLP-1 receptor = GLP-1 receptor (Homo sapiens, UniProt P43220); conditions: GLP-1 activity
Sequence of GLP-1 receptor (P43220 24-463, species assumed): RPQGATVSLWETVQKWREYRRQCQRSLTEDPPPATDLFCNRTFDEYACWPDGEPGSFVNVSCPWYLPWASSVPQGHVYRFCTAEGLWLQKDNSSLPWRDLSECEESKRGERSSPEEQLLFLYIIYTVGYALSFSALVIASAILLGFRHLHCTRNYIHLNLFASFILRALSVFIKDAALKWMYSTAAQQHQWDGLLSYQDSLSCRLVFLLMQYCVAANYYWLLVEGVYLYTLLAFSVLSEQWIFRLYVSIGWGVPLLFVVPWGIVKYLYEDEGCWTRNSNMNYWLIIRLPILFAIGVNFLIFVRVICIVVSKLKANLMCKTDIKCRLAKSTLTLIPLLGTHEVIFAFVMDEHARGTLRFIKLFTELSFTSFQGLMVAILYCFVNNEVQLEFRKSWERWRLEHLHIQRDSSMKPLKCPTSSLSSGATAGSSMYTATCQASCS
Description: After culturing the cells in a 37° C., 5% CO2 incubator for about 16 hours, the cells were treated with 20 μL/well of a test solution of various concentrations to be evaluated and allowed to react in a 37° C., 5% CO2 incubator for 5 hours. After the reaction was complete, the plate was treated with Bright-Glo™ assay reagent at 100 μL/well, and then was allowed react at room temperature for 2 minutes. After the reaction was completed, the plate was inserted into a Luminometer and the degree of bioluminescence was measured.

[1] = In vivo pharmacokinetics profile after subcutaneous administration (GLP-1-Fc ELISA and GLP-2-Fc ELISA); parameters: species or system male SD (Sprague Dawley) rats; conditions: rat, 1 mg/kg SC
Description: First, each protein was administered to 3 male SD (Sprague Dawley) rats per group at a dose of 1 mg/kg by subcutaneous (SC) route. Before injection and after 0.5, 1, 5, 10, 24, 48, 72, 120, and 168 hours after the injection, blood was collected and stored at room temperature for 30 minutes to aggregate. After centrifuging the aggregated blood at 3,000 rpm for 10 minutes, serum of each sample was collected and stored in a cryogenic freezer. Analyses were performed by an assay designed to specifically detect the GLP-1 site and Fc in the administered protein (GLP-1-Fc ELISA) and an assay designed to specifically detect the GLP-2 site and Fc in the administered protein (GLP-2-Fc ELISA). Specifically, a method of loading a biological sample on a plate coated with an antibody that binds to mouse-derived human immunoglobulin G4 (IgG4) to detect the target protein using a biotinylated anti-GLP-1 antibody (GLP-1-Fc ELISA), and a method of loading a biological sample on a plate coated with a monoclonal antibody that specifically reacts with GLP-2, to detect the target protein using a secondary antibody having HRP conjugated to mouse-derived human immunoglobulin G4 (IgG4) (GLP-2-Fc ELISA) were used. The obtained and prepared serum samples were loaded with appropriate dilutions to be analyzed at a position on a straight line of the standard curve.

B6 normal mice [2] = assay: Fluorescence spectrometry tissue distribution of Cy5.5-labelled substances; assay type: in vivo
Description: Next, the present inventors performed an experiment in B6 normal mice in order to observe the distribution in each tissue and organ according to the administration of a bispecific fusion protein according to an embodiment of the present invention. Cy5.5 was used as a fluorophore for tracking the distribution after administration of each substance. Buffer exchange was performed for each substance to be administered, MG12-1, MG12-4, and GLP-1Fc homodimer with boric acid buffer (pH 8.5), and with reference to the protocol of the Cy5.5 labeling kit (GE, #PA15605) were allowed to react with an appropriate amount of Cy5.5 overnight under refrigeration conditions. Unreacted Cy5.5 in the reaction-completed substance was removed through the PBS substitution process, and whether Cy5.5 was reacted well was confirmed through the final SDS-PAGE. Each administered substance was diluted with 10% DMSO/PBS to have the same fluorescence intensity using an ELISA plate reader capable of measuring fluorescence intensity before being administered.

B6 normal mice [3] = assay: Small intestine weight and body weight (GLP-1-Fc homodimer, GLP-2-Fc homodimer, MG12-1, MG12-4); assay type: in vivo; conditions: SC twice a week, 4 doses; homodimers 10 nmol/kg, MG12 20 nmol/kg
From the text: In addition, the present inventors conducted the same experiment as above while only varying the administered substance, in order to confirm whether the bispecific fusion proteins (MG12-1 and MG12-4) designed in a form other than MG12-5 also increase the small intestine weight and energy absorption rate of experimental animals. Specifically, PBS, 10 nmol/kg GLP-1-Fc homodimer, 10 nmol/kg GLP-2-Fc homodimer, 20 nmol/kg MG12-1, and 20 nmol/kg MG12-4 were subcutaneously administered. The drug was administered twice a week for a total of 4 times for 2 weeks. After 4 doses, the body weight was measured before autopsy, and the small intestine was excised after the autopsy and weighed. After the autopsy, the entire gastrointestinal tract of the mouse was separated, the mesentery and the pancreas were excised, and the area where the ileum and the cecum meet was cut to separate the small intestine and the large intestine. The separated small intestine was perfused and washed with 10% neutral formalin to remove the contents, and was weighed after removing the neutral formalin with an absorbent towel.

[4] = 24 hours after administration, Cy5.5 label

B1: MG12-1: Knob/hole Fc heterodimer: GLP-1 (SEQ 1), glycan linker, first fusion protein SEQ 24; GLP-2 (SEQ 17), second fusion protein SEQ 32 (protein)
chain 1: HGEGTFTSDVSSYLEGQAAKEFIAWLVKGRGGGGGSGGGGSGGGGSAKNTTAPATTRNTTRGGEEKKKEKEKEEQEERTHTCPPCPSHTQPLGVFLFPPKPKDTLMISRTPEVTCVVVDVSQEDPEVQFNWYVDGVEVHNAKTKPREEQFNSTYRVVSVLTVLHQDWLNGKEYKCKVSNKGLPSSIEKTISKAKGQPREPQVYTLPPCQEEMTKNQVSLWCLVKGFYPSDIAVEWESNGQPENNYKTTPPVLDSDGSFFLYSRLTVDKSRWQEGNVFSCSVMHEALHNHYTQKSLSLSLGK
chain 2: HGDGSFSDEMNTILDNLAARDFINWLIQTKITDGGGGSGGGGSGGGGSEKEKEEQEERTHTCPPCPSHTQPLGVFLFPPKPKDTLMISRTPEVTCVVVDVSQEDPEVQFNWYVDGVEVHNAKTKPREEQFNSTYRVVSVLTVLHQDWLNGKEYKCKVSNKGLPSSIEKTISKAKGQPREPQVCTLPPSQEEMTKNQVSLSCAVKGFYPSDIAVEWESNGQPENNYKTTPPVLDSDGSFFLVSRLTVDKSRWQEGNVFSCSVMHEALHNHYTQKSLSLSLGK
In the case of B1, the “distribution to the liver (SUV)” value (Balb/c-nude mice) is reported as “reduced or showed no difference compared to Fc”, the “distribution to the small intestine and large intestine (SUV)” value (Balb/c-nude mice) is reported as “significantly high compared to that of GLP-1-Fc homodimer and GLP-2-Fc homodimer” and the “activity reduced due to glycosylation” value (GLP-1 receptor) is reported as “about 11 times”. For the same molecule, the AUClast ([1]; GLP-1-Fc ELISA (Table 5)) was 13919.8 ± 824.9 ng·h/mL, the Cmax ([1]; GLP-1-Fc ELISA (Table 5)) was 442.2 ± 20.8 ng/mL and the Half-life ([1]; GLP-1-Fc ELISA (Table 5)) was 16.5 ± 6.3 h. For the same molecule, the Tmax ([1]; GLP-1-Fc ELISA (Table 5)) was 10 h, the AUClast ([1]; GLP-2-Fc ELISA (Table 6)) was 78639.0 ± 11205.3 ng·h/mL and the Cmax ([1]; GLP-2-Fc ELISA (Table 6)) was 1136.7 ± 261.0 ng/mL. The Half-life ([1]; GLP-2-Fc ELISA (Table 6)) was 43.7 ± 1.8 h, the Tmax ([1]; GLP-2-Fc ELISA (Table 6)) was 24.0 ± 0.0 h and the “Average fluorescence intensity, Brain” value (B6 normal mice [2]; [4]) was 489. The “Average fluorescence intensity, Large intestine” value (B6 normal mice [2]; [4]) was 3702, the “Average fluorescence intensity, Small intestine” value (B6 normal mice [2]; [4]) was 7320 and the “distribution in the small intestine and the large intestine” value (B6 normal mice [2]; compared to GLP-1-Fc homodimer) was “larger”. For the same molecule, the small intestine weight (B6 normal mice [3]) was “greater increase in small intestine weight than the GLP-2-Fc homodimer administered group; also recorded: superior effect of increasing small intestine weight” and the “weight change before autopsy (body weight)” value (B6 normal mice [3]) was “numerical increase in body weight”.

Source: US20240368239A1, “Novel bispecific protein and use thereof” (SL METAGEN, priority 2020, published 2024)
